B1: duplex DNA control (dsDNA)
DNA 1: CTTGAGCTTGAGCTCAAGCTCAAG
DNA 2: CTTGAGCTTGAGCTCAAGCTCAAG

Target: DHX9 helicase (human, UniProt Q08211 1-1270)
Assay: EMSA; 5 mM AMP-PNP, 10 mM Mg2+; 100 nM DHX9, 100 nM DNA; EMSA: 20 mM Tris-HCl pH 7.5, 50 mM NaCl, 1 mM DTT, 1 mM EDTA, 10 mM MgCl2, 5% glycerol, 5 mM AMP-PNP, 30 C 30 min; MBN assay: 10 mM Tris-HCl pH 7.5, 5 mM DTT, 100 ug/ml BSA, 5 mM MgCl2, 5 mM ATP or AMP-PNP, 10% glycerol, 35 C
Details: protein: recombinant, tags: His, label: 5'-32P

DHX9 helicase, sequence (Q08211 whole entry): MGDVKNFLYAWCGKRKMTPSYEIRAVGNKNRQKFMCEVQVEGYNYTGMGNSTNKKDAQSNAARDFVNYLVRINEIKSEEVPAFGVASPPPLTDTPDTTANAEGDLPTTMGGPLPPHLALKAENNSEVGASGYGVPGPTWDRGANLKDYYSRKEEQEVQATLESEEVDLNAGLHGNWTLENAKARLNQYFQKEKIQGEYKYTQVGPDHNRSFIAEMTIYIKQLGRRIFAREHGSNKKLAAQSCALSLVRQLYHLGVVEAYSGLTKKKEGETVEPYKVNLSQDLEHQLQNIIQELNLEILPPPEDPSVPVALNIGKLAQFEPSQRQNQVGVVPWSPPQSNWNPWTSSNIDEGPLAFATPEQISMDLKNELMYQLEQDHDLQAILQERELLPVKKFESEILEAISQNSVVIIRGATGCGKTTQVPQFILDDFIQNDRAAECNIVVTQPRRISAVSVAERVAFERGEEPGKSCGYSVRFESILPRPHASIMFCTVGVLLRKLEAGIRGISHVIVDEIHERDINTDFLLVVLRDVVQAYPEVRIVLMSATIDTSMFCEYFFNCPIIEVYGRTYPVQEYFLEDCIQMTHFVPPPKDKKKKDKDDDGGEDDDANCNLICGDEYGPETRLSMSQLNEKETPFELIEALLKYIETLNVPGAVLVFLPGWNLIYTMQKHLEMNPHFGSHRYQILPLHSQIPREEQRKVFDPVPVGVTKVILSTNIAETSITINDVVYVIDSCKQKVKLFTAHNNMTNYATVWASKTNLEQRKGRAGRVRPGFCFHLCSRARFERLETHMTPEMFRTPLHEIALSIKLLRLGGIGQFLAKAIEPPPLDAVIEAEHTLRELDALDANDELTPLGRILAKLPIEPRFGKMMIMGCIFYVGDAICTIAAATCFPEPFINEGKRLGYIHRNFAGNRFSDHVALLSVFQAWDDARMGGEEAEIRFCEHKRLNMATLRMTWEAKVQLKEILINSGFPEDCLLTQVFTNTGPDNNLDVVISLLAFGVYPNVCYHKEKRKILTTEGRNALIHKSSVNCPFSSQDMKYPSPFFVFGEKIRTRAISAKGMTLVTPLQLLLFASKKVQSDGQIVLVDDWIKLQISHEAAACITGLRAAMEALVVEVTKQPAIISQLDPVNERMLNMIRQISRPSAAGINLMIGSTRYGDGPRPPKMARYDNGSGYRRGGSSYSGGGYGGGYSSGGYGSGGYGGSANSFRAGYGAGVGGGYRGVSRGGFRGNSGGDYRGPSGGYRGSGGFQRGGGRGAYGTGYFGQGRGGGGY

Row | Binder | binding result (intramolecular triplex with 3' overhang, single strand, pre-annealed with 10 mM Mg2+) | binding result (self-complementary, 2 copies of one strand, blunt, hairpin may also form)
1 | CCCCTCCCTTTTTGGGAGGGGCGCTTATGGGGAGGGCAGTCGAGCG (structured_DNA) [c-MYC-related intramolecular triplex with 3' overhang (H-DNA)] | binds | 
2 | B1 |  | no binding
